Test results taken from the nanobody polyreactivity screen of Harvey et al. (2022).

Test: yeast display, Sf9 membrane polyspecificity reagent, FACS + sequencing; frameworks hold sequencing errors
Summary of the method: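 After 36–48 hours of galactose induction, yeast (Saccharomyces cerevisiae BJ5465) displaying a synthetic nanobody library were stained at 4 °C for 1 hour with 10% biotinylated, detergent-solubilized Sf9 membrane reagent. Streptavidin microbeads enriched the stained cells before FACS sorting into low and high (top ~1%) gates on anti-HA and streptavidin fluorescence. Each clone's polyreactivity label reflects its gate of origin.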
With “QVQLVESGGGLVQAGGSLRLSCAASGSTFRHYAMGWYRQAPGKERELVAVISWGGTSTYYADSVKGRFTISRDNAKNTVYLQMNSLKPEDTAVYYCAVKYAYPYAGVSAIRYYYWGQGTQVTVSS” the “polyreactivity (PSR sort gate)” value was “low polyreactivity”.
In the case of “QVQLVESGGGLVQAGGSLRLSCAASGSTFRINAMGWYRQAPGNERELVAAMSYNGGGTYADSVKGRFTISRDNAKNTVYLQMNSLKPEDTAVSYCAADTYYGQAYTAYTYRLYDYWGEGTQVTVSS”, the “polyreactivity (PSR sort gate)” value is reported as “low polyreactivity”.
In the case of “QVQLVESGGGLVQAGGSLRLSCAASGSTFRIYAMGWYRQAPGREREFVAAITWTGGSTYYADSVKGRFTISRDNAKNTVYLQMNSLKPEDTADYYCAARQLSDYYWGQGTQVTVSS”, the “polyreactivity (PSR sort gate)” value is reported as “high polyreactivity”.
With “QVQLVESGGGLVQAGGSLRLSCAASGSTFRKYAMGWYRQAPGKEREFVAAISSSGGRTYYADSVKGRFTISRDNAKNTVYLQMNSLKPEDTAVYYCNAYFRYSYDYWGQGTQVTVSS” the “polyreactivity (PSR sort gate)” value was “high polyreactivity”.
For “QVQLVESGGGLVQAGGSLRLSCAASGSTFRKYTMGWYRQAPGKERELVASISRRGGSTYYADSVKGRFTISRDNAKNTVYLQMNSLKPEDTAVYYCNVTYSQYGYDYWGQGTQVTVSS”, the “polyreactivity (PSR sort gate)” value was “high polyreactivity”.
For “QVQLVESGGGLVQAGGSLRLSCAASGSTFRLNAMGWYRQARGKEWEFVAAISSRGGSTYYADSVKGRFTISRDNAKNTDYLQMNSLKPEDTAVYYCKAVRSKLIENDYWGQGTQVTVSS”, the “polyreactivity (PSR sort gate)” value was “high polyreactivity”.
In the case of “QVQLVESGGGLVQAGGSLRLSCAASGSTFRLNAMGWYRQSPGKERELVAAISRGGSTNYADSVKGRFTISRDNAKNTVYLQMNSLKPEDTAVYYCATRRSYKYYWGQGTQVTVSS”, the “polyreactivity (PSR sort gate)” value is reported as “high polyreactivity”.
For “QVQLVESGGGLVQAGGSLRLSCAASGSTFRLYAMGWYRQAPGKERELVAAISQRGGSTYYADSVKGRFTISRDNAKNTVYLQMNSLKPEDTAVYYCNTDWYRKWGKPYYYWGQGTQVTVSS”, the “polyreactivity (PSR sort gate)” value was “high polyreactivity”.
With “QVQLVESGGGLVQAGGSLRLSCAASGSTFRLYTKGWYRQAPGKERELVAAISVSGVSTYYADSVKGRFTISRDNAKNTVYVQMNSLKPEDTAVYYCAKRGYLFLRGSVRVGYNYWGQGTQVTVSS” the “polyreactivity (PSR sort gate)” value was “low polyreactivity”.
For “QVQLVESGGGLVQAGGSLRLSCAASGSTFRNNAMGWYRQAPGKERELVAAISWIGGDTYYADSVKGRFTISRDNAKNTVYLQMNSLKPEDTAVYYCNRDFVYWPWFKFDYWGQGTQVTVSS”, the “polyreactivity (PSR sort gate)” value was “low polyreactivity”.
For “QVQLVESGGGLVQAGGSLRLSCAASGSTFRNYAMGWYRQAPGKDRELVAAISGSGGRTNYADSVKGRFTISRDNAKTTVYLQMNSLKPEDTAVYYCAASGGRNWWAARNYYWGQGTQVTVSS”, the “polyreactivity (PSR sort gate)” value was “low polyreactivity”.
For “QVQLVESGGGLVQAGGSLRLSCAASGSTFRPNAMGWYRPAPGKDRELVAAISWSGRSTYYADSVKGRFTISRDQAKTTVYLQMNSLTPQDTAVADCAKELYAGRTDTRTRYDYWGQGTQVTVSS”, the “polyreactivity (PSR sort gate)” value was “high polyreactivity”.
In the case of “QVQLVESGGGLVQAGGSLRLSCAASGSTFRPNAMGWYRQAPGKERELVAAISRSGVSTYYADSVKGRFTISRDNAKNTVYLQMNSLQPEDTAVYYCARRYTGRPVLRESWGQGTQVTVSS”, the “polyreactivity (PSR sort gate)” value is reported as “low polyreactivity”.
In the case of “QVQLVESGGGLVQAGGSLRLSCAASGSTFRQYAMGWYRQAPGKERELVAAIRGRDGSTYYADSVKGGFTISRDNAKYTVYLQMNSLKPEDSAVYYCNVVARGVSPGYDYWGQGTQVTVSS”, the “polyreactivity (PSR sort gate)” value is reported as “high polyreactivity”.
With “QVQLVESGGGLVQAGGSLRLSCAASGSTFRRNAMGGYRQAPGKERELVAAITSTDSTYYADSVKGRFTISRDNAKNSVYLQMNSLKPEDTAVYYCAKGYWWGGEMGYWGQGTQVTVSS” the “polyreactivity (PSR sort gate)” value was “low polyreactivity”.
With “QVQLVESGGGLVQAGGSLRLSCAASGSTFRRNAMGWYRQAPGKERELVAAITSTDSTYYADSVKGRFTISRDNAKNTVYLQMNSLKPEDTAVYYCAKGYCWGGQMGYWGQGTQVTVSS” the “polyreactivity (PSR sort gate)” value was “low polyreactivity”.
For “QVQLVESGGGLVQAGGSLRLSCAASGSTFRRNAMGWYRQAPGKERELVAAITVSGGSTYYADSVKGRFTISRDNAKNTVYLQMNSLKPEDTAVYYCAAEPSQYSWYTTYYYWGQGTQVTVSS”, the “polyreactivity (PSR sort gate)” value was “high polyreactivity”.
With “QVQLVESGGGLVQAGGSLRLSCAASGSTFRRNAMGWYRQAPGKERELVATISTRGGSTYYADSVKGRLTLSRDNAKNTVYLQMNSLKPEDTAVYYCAADRRSGYSRSKYGRGDYWGQGTQVTVSS” the “polyreactivity (PSR sort gate)” value was “high polyreactivity”.
In the case of “QVQLVESGGGLVQAGGSLRLSCAASGSTFRRYAMGSYRQAPGKERELVAAISVSGGRTSYADSVKGRFTISRDNAKNTVYLQMNSLKPEDTAVYYCNADYYKRMDYWGQGTKVTVSS”, the “polyreactivity (PSR sort gate)” value is reported as “high polyreactivity”.
For “QVQLVESGGGLVQAGGSLRLSCAASGSTFRRYAMGWYRQAPGKEREISTSDGSTYYADSVKGRFTISRDNAKNTVYLQMNSLKPEDTAVYYCAADGYRQLIEDITDDYWGQGTQVTVSS”, the “polyreactivity (PSR sort gate)” value was “low polyreactivity”.
With “QVQLVESGGGLVQAGGSLRLSCAASGSTFRRYAMGWYRQAPGKERELVAAITSTDVNTYYADSVKGRFTISRDNAKNTVYFQMNSLKPEDTAVYYCAAVYLGYYGVSDMEYWGQGTQVTVSS” the “polyreactivity (PSR sort gate)” value was “high polyreactivity”.
In the case of “QVQLVESGGGLVQAGGSLRLSCAASGSTFRRYPMGGYRQAPGTERELVAGISSGGTTYYADSVKGRFTISRDNAKNSVYLQMNSLKPEDTAVYYCAKVLYLRSAQAYYYWGQGTQVTVSS”, the “polyreactivity (PSR sort gate)” value is reported as “high polyreactivity”.
In the case of “QVQLVESGGGLVQAGGSLRLSCAASGSTFRSNAMGWYRQAPGKERELVAAISRRGGSTYYADSVKGRFTISRDNAKNTVDLQMNSLKPEDTAVYYCAKGYIGFPISSFLYDYWGQGTQVTVSS”, the “polyreactivity (PSR sort gate)” value is reported as “high polyreactivity”.
For “QVQLVESGGGLVQAGGSLRLSCAASGSTFRSYTMGWYRQAPGKERELVADINGTGGSTYYADSVKGRFTISRDNAKNTVYLQMNSLKPEDTAVYYCAADGYFRTVTSGWALRMGYWGQGTQVTVSS”, the “polyreactivity (PSR sort gate)” value was “high polyreactivity”.
For “QVQLVESGGGLVQAGGSLRLSCAASGSTFRTYAMGWYRQAPGKEREFVAAIRYNGGSTYYADSVKGRFTISLDNAKNTVYLQMNSLKPEDTAVYYCAAATYYYRVSWLWYYLDDYWGQGTQVTVSS”, the “polyreactivity (PSR sort gate)” value was “high polyreactivity”.
For “QVQLVESGGGLVQAGGSLRLSCAASGSTFRVNAMGWYRQAPGKEREFVATIRGGGVRTYYADSVKGRFTISRDNAKNTVYLQMNSLKPEDTAVYYCAVAGGTPGAYRRFNYWGQGTQVTVSS”, the “polyreactivity (PSR sort gate)” value was “high polyreactivity”.
With “QVQLVESGGGLVQAGGSLRLSCAASGSTFRVNAMGWYRQAPGKEREFVATIRGGGVRTYYADSVKGRFTISRDNAKNTVYLQMNSLKPEDTAVYYCNRKFYWRRDYWGQGTQVTVSS” the “polyreactivity (PSR sort gate)” value was “high polyreactivity”.
For “QVQLVESGGGLVQAGGSLRLSCAASGSTFRVNVMGWYRQAPGKERELVAAITTSGGSTYYADSVKGRFTISRDNAKNTVYLQMNSLKPEDTAVYYCAAEGGFSPQPYNLYYATPREDYWGQGTQVTVSS”, the “polyreactivity (PSR sort gate)” value was “low polyreactivity”.
For “QVQLVESGGGLVQAGGSLRLSCAASGSTFRVYAMGWYRPAPGKVRELVAAISGSGTSTYYADSVKGRFTISRDNAKNTVYLQMNSLKPEDTAVYYCATGKNYWRGYEYWGQGTQVTVSS”, the “polyreactivity (PSR sort gate)” value was “high polyreactivity”.
With “QVQLVESGGGLVQAGGSLRLSCAASGSTFRVYAMGWYRQAPGKERELVAAITKSGGSTYYADSVKGRFTISRDNAKNTVYLQMNSLKPEDTEVYYCAADKSWTRYGFYWGQGTQLTVSS” the “polyreactivity (PSR sort gate)” value was “high polyreactivity”.
In the case of “QVQLVESGGGLVQAGGSLRLSCAASGSTFRVYAMGWYRQAPGNERELVAAISLSGGRTYYADSVKGRFTISRDNAKNTVYLQMNSLKPEDTAVYYCARRYRDYGRYGYWGQGTQVTVSS”, the “polyreactivity (PSR sort gate)” value is reported as “high polyreactivity”.
In the case of “QVQLVESGGGLVQAGGSLRLSCAASGSTFRWNAMGWYRQAPGKERELVAAITRSGGSTYYADSVKGRFTISRDNAKNTVYLQMNSLKPEDTAVYYCAAGYYTARRIRSDYWGQGTQVTVSS”, the “polyreactivity (PSR sort gate)” value is reported as “high polyreactivity”.
In the case of “QVQLVESGGGLVQAGGSLRLSCAASGSTFRWNTMGWYIQAPGKERELVAAISYSGGITYYADSVKGRFTISRDNAKNTVYLQMNSLKPEDTAVYYCYATRVRGWYVTRYYYWGQGSQVTVSS”, the “polyreactivity (PSR sort gate)” value is reported as “high polyreactivity”.
With “QVQLVESGGGLVQAGGSLRLSCAASGSTFRWYAMGWYRQAPGKERDLVAAISARGTSTYYADSVKGRFTISRDNAKNTVYLQMNSLKPEDTAVSYCAAPQQQSWTYDGRYGYWGQGTQVTVSS” the “polyreactivity (PSR sort gate)” value was “high polyreactivity”.
For “QVQLVESGGGLVQAGGSLRLSCAASGSTFRWYAMGWYRQAPGKERELVAAIRRIGSRTYADSVKGRFTISRDNAKNTVYLQMNSLKPEDTAVYYCATRYKYTGYDYWGQGTQVTVSS”, the “polyreactivity (PSR sort gate)” value was “high polyreactivity”.
With “QVQLVESGGGLVQAGGSLRLSCAASGSTFRWYAMGWYRQAPGKERELVAAIRYTGGSTYYADSVKGRFTISRDNAKNTVYLQMNSLKPEDTAVYYCNARTFRRYVSYSRTYVGYDYWGQGTQVTVSS” the “polyreactivity (PSR sort gate)” value was “high polyreactivity”.
With “QVQLVESGGGLVQAGGSLRLSCAASGSTFRWYAMGWYRQAPGKERELVAAITAGGRTYYADSVKGRFTISRDNAKNTVYLQMTSLKPEDTAVYYCNALGKPTWYATTYDYWGQGTQVTVSS” the “polyreactivity (PSR sort gate)” value was “high polyreactivity”.
For “QVQLVESGGGLVQAGGSLRLSCAASGSTFRYIAMGWYRQAPGKERELVAAISRGGSTNYADSVKGRFTISRDNAKNSVYLQMNSLKPEDTAVYYCAASGTRRGTAVWRVKPGDYWGQGTQVTVSS”, the “polyreactivity (PSR sort gate)” value was “high polyreactivity”.
For “QVQLVESGGGLVQAGGSLRLSCAASGSTFRYKTMGWYRQAPGKERELVAAISSRGTNTYYADSVKGRFTISRDNAKNTVYLQMNSLKPDDPAVYYCDTGYYVRMDWGQGTQVTVSS”, the “polyreactivity (PSR sort gate)” value was “high polyreactivity”.
In the case of “QVQLVESGGGLVQAGGSLRLSCAASGSTFRYNAMGWYRQAPGKERELVAVISWGGGRTYYADSVKGRFTISRDNAKNTVYLQMNSLKPEDTAVYYCNVYFGRIVARDYGYWGQGTQVTVSS”, the “polyreactivity (PSR sort gate)” value is reported as “high polyreactivity”.
In the case of “QVQLVESGGGLVQAGGSLRLSCAASGSTFRYNAMGWYRQAPGKEREVVAAISRIGGTTYADSVKGRFTISRDNAKNTVYFQMNSLKPEDTAVYYCARANWGYYGPEYGYWGQGTQVTVSS”, the “polyreactivity (PSR sort gate)” value is reported as “high polyreactivity”.
For “QVQLVESGGGLVQAGGSLRLSCAASGSTFRYNAMGWYRQARGKERELVGGITSSGGTYAHSVKGRFTISRDNAKNTVYLQMNSLKPEDTAVYYCNALGVQDEFDYWGQGTQVTVSS”, the “polyreactivity (PSR sort gate)” value was “low polyreactivity”.
In the case of “QVQLVESGGGLVQAGGSLRLSCAASGSTFRYNARGWYRQAPGKERELVADIRRSGGSTYYADSVKGRFTISRDNAKNTVYLQMNSLKPEDTAVYYCNAAVSRLYYHSYSYRSYYYWGQGTQVTVSS”, the “polyreactivity (PSR sort gate)” value is reported as “high polyreactivity”.
